Patent US20230052168A1 (ROYAL COLLEGE OF SURGEIONS IN IRELAND, published 2023)

What was measured:
protein C (zymogen) [1] = target: T1, protein C (zymogen) (UniProt P04070 43-461); assay: inferred from APC generation assay on endothelial cells with E86A control
T1 construct: also called PC
Procedure: (§1) Protein C (100 nM) and thrombin (5 nM) were added with h-sEPCR^Snoop (1 μM) or h-sEPCR-E86A^Snoop (1 μM) an sEPCR variant unable to bind to PC/APC, then incubated for 30 minutes. […] The net effect of this restriction of APC generation. Statistical analysis of experimental data was performed using one-way ANOVA and Tukey's multiple comparison post hoc analysis. ns signifies non-significant, * signifies a p value of <0.05.
as §1, with “Assessment of h-sEPCR^Snoop Inhibition of Protein C Activation by the Thrombin-Thrombomodulin Complex on Endothelial Cells Protein” for “Protein”, “h-sEPCR-E86ASnoop” for “h-sEPCR-E86A^Snoop”, “<0.05 (see FIG. 5).” for “<0.05.”

protein C (zymogen) [2] = target: T1, protein C (zymogen); assay: control in APC generation assay on endothelial cells (protein C 100 nM, thrombin 5 nM)
Procedure: as §1
as §1, with “Assessment of h-sEPCR^Snoop Inhibition of Protein C Activation by the Thrombin-Thrombomodulin Complex on Endothelial Cells Protein” for “Protein”, “h-sEPCR-E86ASnoop” for “h-sEPCR-E86A^Snoop”, “<0.05 (see FIG. 5).” for “<0.05.”

T1 sequence (P04070 43-461): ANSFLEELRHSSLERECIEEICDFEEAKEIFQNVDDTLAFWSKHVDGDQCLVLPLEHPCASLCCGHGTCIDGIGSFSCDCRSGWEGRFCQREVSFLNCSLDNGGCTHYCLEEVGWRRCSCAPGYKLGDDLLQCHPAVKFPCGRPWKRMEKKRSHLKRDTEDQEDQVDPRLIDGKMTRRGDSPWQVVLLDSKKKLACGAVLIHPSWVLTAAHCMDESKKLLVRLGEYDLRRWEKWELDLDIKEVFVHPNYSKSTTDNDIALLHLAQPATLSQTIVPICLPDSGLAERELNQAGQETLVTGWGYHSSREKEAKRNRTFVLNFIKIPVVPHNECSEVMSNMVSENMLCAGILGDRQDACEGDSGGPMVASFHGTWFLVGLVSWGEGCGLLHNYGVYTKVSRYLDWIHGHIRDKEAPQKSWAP

| binding result (protein C (zymogen) [1]) | binding result (protein C (zymogen) [2]) | Binder |
| --- | --- | --- |
| binds | – | h-sEPCR^Snoop (recombinant human soluble endothelial cell protein C receptor with GSGGSG linker, SnoopTag and C-terminal His-tag) (receptor, Expressed in HEK293 cells, purified on nickel; The printed entry still carries the N-terminal signal peptide; also called human sEPCR^Snoop; r-sEPCR) SQDASDGLQRLHMLQISYFRDPYHVWYQGNASLGGHLTHVLEGPDTNTTIIQLQPLQEPESWARTQSGLQSYLLQFHGLVRLVHQERTLAFPLTIRCFLGCELPPEGSRAHVFFEVAVNGSSFVSFRPERALWQADTQVTSGVVTFTLQQLNAYNRTRYELREFLEDTCVQYVQKHISAENTKGSQTSRSYTSGSGGSGKLGDIEFIKVNKHHHHHH |
| – | no binding (tested: 1 µM) | h-sEPCR-E86A^Snoop (receptor) SQDASDGLQRLHMLQISYFRDPYHVWYQGNASLGGHLTHVLEGPDTNTTIIQLQPLQEPESWARTQSGLQSYLLQFHGLVRLVHQARTLAFPLTIRCFLGCELPPEGSRAHVFFEVAVNGSSFVSFRPERALWQADTQVTSGVVTFTLQQLNAYNRTRYELREFLEDTCVQYVQKHISAENTKGSQTSRSYTSGSGGSGKLGDIEFIKVNKHHHHHH |
